This note sets out measurements from paper PMC4559223.

For data set [1], the target named is T1, GATA3 C-finger (mouse, UniProt P23772 308-370). As to the kind of experiment: X-ray crystallography.
The target of data set [2] is T1, GATA3 C-finger. As to the kind of experiment: X-ray crystallography. This is another data set of the same source.

Where two headings read alike, the source gives them in different places.

T1 sequence (P23772 308-370): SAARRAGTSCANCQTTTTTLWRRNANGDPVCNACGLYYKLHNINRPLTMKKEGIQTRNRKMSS

B1: OPP DNA (crystal) (dsDNA)
DNA 1: TTGATAAATCAGAGATAACC
DNA 2: AAGGTTATCTCTGATTTATC
For the molecule B1, the binding result with GATA3 C-finger [1] is “binds”.

B2: ADJ DNA (crystal) (dsDNA)
DNA 1: TTCTGATAAGACTTATCTGC
DNA 2: AAGCAGATAAGTCTTATCAG
B2: in the data set with GATA3 C-finger [2], the binding result is reported as “binds”.
